Here are results for four molecules from patent publication US20250268941A1 (AUTOLUS, published 2025).

In experiment [1] the target is BCMA on the cell surface (SupT1.BCMAhigh, SupT1.BCMAlow, MM.1s, JeKo-1 cells) (human) (UniProt Q02223). The experiment is described as follows: cell-based or functional assay.
The next experiment concerns the target T1, BCMA-Avi (Homo sapiens, UniProt Q02223, biotinylated at the AviTag (implied by detection with streptavidin-APC); position not given).
T1 construct: soluble recombinant staining reagent; also called BCMA-AviTag; BCMA-Avi/Strep-APC
T1 sequence (recombinant BCMA with AviTag, looked up): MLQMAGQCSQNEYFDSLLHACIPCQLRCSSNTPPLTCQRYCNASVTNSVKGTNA
Put plainly: flow cytometry of live CD3+ T cells transduced with CAT-41BB-ζ alone, stained with BCMA-AviTag plus streptavidin-APC; the staining concentration is not given [a]. (In general: Flow cytometry measures light scatter and fluorescence of single cells or particles in a stream.)

Experiment [2] has as its target T2, soluble BCMA ectodomain (human, UniProt Q02223 1-54).
T2 construct: extracellular domain
T2 sequence (looked up): T1 sequence (recombinant BCMA with AviTag, looked up)
Put plainly: SPR, soluble BCMA ectodomain as analyte. The procedure:
(§1) FIG. 6—Surface plasmon resonance sensogram of binding kinetics between D8 IgG and BCMA is shown. BCMA starting concentration was 50 nM with serial dilutions to 0.19 nM.
(§2) D8 IgG binding to soluble BCMA ectodomain was also studied using surface plasmon resonance (FIG. 6).
On the technique in general: SPR reads the build-up and loss of mass on a sensor chip optically.

Experiment [3] has as its target T2, soluble BCMA ectodomain. Put plainly: SPR, BCMA 50 nM serially diluted to 0.19 nM. The method, then: as §1, §2

The molecule bb2121 CAR registered a viable SupT1 BCMAlow targets remaining, 24 h co-culture, E:T 1:8 in experiment [1] of 21.1%. The same measure, in the same setting: then LCAR-B38M CAR, with 25.5%.

B1: CAT-41BB-ζ CAR (other)
chain: QVQLQQSGPELVKPGASVKISCKASGYAFSSSWMNWVKQRPGKGLEWIGRIYPGDEDTNYSGKFKDKATLTADKSSTTAYMQLSSLTSEDSAVYFCARSLLYGDYLDYWGQGTTLTVSSGGGGSGGGGSGGGGSQIVLTQSPAIMSASPGEKVTMTCSASSSVSYMHWYQQKSGTSPKRWIYDTSKLASGVPDRFSGSGSGTSYFLTINNMEAEDAATYYCQQWNINPLTFGAGTKLELKRSDPTTTPAPRPPTPAPTIASQPLSLRPEACRPAAGGAVHTRGLDFACDIYIWAPLAGTCGVLLLSLVITLYCKRGRKKLLYIFKQPFMRPVQTTQEEDGCSCRFPEEEEGGCELRVKFSRSADAPAYQQGQNQLYNELNLGRREEYDVLDKRRGRDPEMGGKPRRKNPQEGLYNELQKDKMAEAYSEIGMKGERRRGKGHDGLYQGLSTATKDTYDALHMQALPPR
notes: Expressed on primary human T cells; also called CAT19 CAR; CAT19CAR using Campana architecture
For B1, the binding result in the experiment with BCMA-Avi is “no binding”.

B2: D8 IgG (antibody, V domains shown)
VH: EVQLVESGGGLVQPGRSLKLSCAASGFIFSDYNMAWVRQAPKKGLEWVATIIYDGSSTNHGDSVKGRFTISRDNAKSTLYLQMDSLRSEDTATYYCATRPGPFAYWGQGTLVTVS
VL: DVVLTQTPPTLSATIGQSVSISCRSSQSLLHSNGNTYLHWLLQRPGQSPQFLIYLVSGLGSGVPNRFSGSGSGTDFTLKISGVEAEDLGIYYCVHGTHAWTVGGGTKLELK
By Kd is commonly meant the equilibrium constant for the complex coming apart. The low end stands for higher affinity, the high end for lower affinity. As usually defined, the koff is a measure of how fast the partners let go of each other. A lower koff goes with a long-lived complex. The molecule B2 showed a Kd with soluble BCMA ectodomain [2] of 0.126 nM. Also, in the experiment with soluble BCMA ectodomain [3], the koff stood at 0.00433 s⁻¹.
